From patent US6613211B1, “Capillary electrokinesis based cellular assays” (Aclara BioSciences, Inc., priority 1999, dated 2003)
Where “and” joins values, the source holds several entries; their conditions need not be identical. Identical values can stand only once. Where no end group is shown, it is not given here. The star is where a group is joined. For = O=C*

How the values were obtained:
fMLP receptor [1] = biological target: T1, fMLP receptor (Homo sapiens, UniProt P21462); assay: Capillary cytometric competition of labeled fMLPK binding to cells with a high level of fMLP receptor (syringe pump)
T1 sequence (P21462 1-350): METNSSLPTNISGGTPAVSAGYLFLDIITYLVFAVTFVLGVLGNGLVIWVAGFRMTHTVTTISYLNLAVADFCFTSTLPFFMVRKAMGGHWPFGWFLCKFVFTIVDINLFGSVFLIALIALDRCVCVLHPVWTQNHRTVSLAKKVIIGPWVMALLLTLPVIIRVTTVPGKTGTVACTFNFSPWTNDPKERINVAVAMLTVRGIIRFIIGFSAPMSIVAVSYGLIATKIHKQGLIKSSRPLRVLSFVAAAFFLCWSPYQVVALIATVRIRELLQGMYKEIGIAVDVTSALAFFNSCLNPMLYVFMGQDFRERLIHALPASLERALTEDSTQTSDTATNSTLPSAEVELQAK
Protocol: In the next study, pumping means was employed to move cells through a capillary. […] The buffer solution was 140 mM NaCl, 1 mM KH2PO4, 5 mM Na2HPO4, 1.5 mM CaCl2, 0.3 mM MgSO4, 1 mM MgCl2, 0.2% BSA. The cell concentration in the reservoir was 10^6/ml and the receptor concentration was 413 pM. […] […] The device was comprised of a reservoir having a volume of 500 μl into which was introduced a capillary having an I.D. of 100 μm. In place of an electroosmotic pump, a syringe pump operating at 500 μl/min applied to the other end of the capillary was employed. The reading was taken at about 100 mm from the capillary inlet.

fMLP receptor [2] = biological target: T1, fMLP receptor; assay: Calibration study, Cy5-fMLPK fluorescence with cells read with P/ACE; assay type: binding; settings: solution 3: 25 μl cells, 25 μl 12 nM Cy5-fMLPK, 0.25 μl 1 mM fMLPK
Protocol: (§1) In the next study, pumping means was employed to move cells through a capillary. The cells were cultured cells having a high level of the fMLP receptor on the surface. The buffer solution was 140 mM NaCl, 1 mM KH2PO4, 5 mM Na2HPO4, 1.5 mM CaCl2, 0.3 mM MgSO4, 1 mM MgCl2, 0.2% BSA. The cell concentration in the reservoir was 10^6/ml and the receptor concentration was 413 pM. […] The labeled ligand was 4 nM, while the ligand concentration was varied from 2.5 nM to 250 nM. The device was comprised of a reservoir having a volume of 500 μl into which was introduced a capillary having an I.D. of 100 μm. In place of an electroosmotic pump, a syringe pump operating at 500 μl/min applied to the other end of the capillary was employed. The reading was taken at about 100 mm from the capillary inlet. The results are shown in FIGS. 4 and 5, where TR stands for tracer, RC refers to receptor and TRC refers to both Tracer and Receptor.
In and initial study for calibration, four solutions were prepared: (1) 25 μl buffer and 25 μl Cy5-fMLPK; (2) 25 μl cells and 25 μl 12 nM Cy5-fMLPK; (3) 25 μl cells and 25 μl 12 nM Cy5-fMLPK and 0.25 μl 1 mM fMLPK; and (4) 25 μl cells and 25 μl buffer. The flurescence was read with the aid of a P/ACE, which covers a volume of 50 μl.

fMLP receptor [3] = biological target: T1, fMLP receptor; assay: Cy-5-fMLPK fluorescence with cells read with Hitachi fluorimeter; assay type: binding; settings: solution 3: 125 μl Cy-5-fMLPK, 125 μl cells, 1 μl 1 mM fMLPK
Protocol: as §1
In the next study four solutions were prepared using the Cy-5 conjugate of fMLPK. The compositions are as follows: (1) 125 μl buffer and 125 μl Cy-5-fMLPK; (2) 125 μl Cy5-fMLPK and 125 μl cells; (3) 125 μl Cy-5-fMLPK, 125 μl cells and 1 μl 1 mM fMLPK; and 125 μl buffer and 125 μl cells. An Hitachi fluorimeter was used to read scence which covers 220 μl. For buffer, the readings were 34,33.

“N-formyl-Met-Leu-Phe-Lys (For-MLFK) [fMLPK]” was tested, and the total peak height (fMLP receptor [1]; fMLPK 2.5 nM) was 19, the total peak height (fMLP receptor [1]; fMLPK 250 nM) was less than 1 and the total peak height (fMLP receptor [1]; fMLPK 2.5 μM) was 0. For the same substance, the “fluorescence, column A” value (fMLP receptor [2]) was 1,97 and 1.99, the “fluorescence, column B” value (fMLP receptor [2]) was 1.98 and 1.97 and the “fluorescence, column C” value (fMLP receptor [2]) was 2.06, 2.06. For the same substance, the “fluorescence, column D” value (fMLP receptor [2]) was 1.95 and 1.99, the “fluorescence, column A” value (fMLP receptor [3]) was 844 and the “fluorescence, column C” value (fMLP receptor [3]) was 826. The “fluorescence, column D” value (fMLP receptor [3]) was 812.
